Measurements taken from the DeepSol protein solubility set.

assay: soluble on expression in E. coli; label from the status in PepcDB or PDB records

Sequence	soluble on expression in E. coli
MTLELLQAQAQNCTACRLMEGRTRVVFGEGNPDAKLMIVGEGPGEEEDKTGRPFVGKAGQLLNRILEAAGIPREEVYITNIVKCRPPQNRAPLPDEAKICTDKWLLKQIELIAPQIIVPLGAVAAEFFLGEKVSITKVRGKWYEWHGIKVFPMFHPAYLLRNPSRAPGSPKHLTWLDIQEVKRALDALPPKERRPVKAVSQEPLF	soluble
MASKEAHVSLARGEQSVKRIKEFDPGKDSFSVLLLGIDAREKNGETVDQARSDANVLVTFNRKEKTAKMLSIPRDAYVNIPGHGYDKFTHAHAYGGVDLTVKTVEEMLDIPVDYVVESNFTAFEDVVNELNGVKVTVKSDKVIQQIKKDTKGKVVLQKGTHTLDGEEALAYVRTRKADSDLLRGQRQMEVLSAIIDKSKSLSSIPAYDDIVDTMGQNLKMNLSLKDAIGLFPFITSLKSVESIQLTGYDYEPAGVYYFKLNQQKLQEVKKELQNDLGVLEHHHHHH	soluble
MGSDKIHHHHHHMKIVHVCETLKGGIESYLAEIIPYQVGLYGAENIHIIVPRDGDEGRSEFHEAVVWEFRRQGRSLSTMLNLCLAILKIVRTQAPDVIHLHSSFAGAIGRVVLMALRKETKVIYCPHGWSYLRQGAEHTNWLWKKIETMLALACNRIVCISEHEYNAALDAGLPKQKLELIVSGISDLVPDAPRNQAVSSEKRAIRLLFVGRLDYQKGVDLLFNALRLAARKDIELTVVGEAVVNSGWWAQVRGSCPENVQIIGWQERDALQIFYDLADALVVPSRWEGFGLVAVEALRAGTPVICNVAGALPDIVEHGISGYHLNFENEEKAVAFFSDLKLENLTLLRRAARERYTSVFKSQAMNEKMLQMYQAVMPHAETVGAAGFME	not soluble
MGSDKIHHHHHHCWTYHYSEKPMNWENARKFCKQNYTDLVAIQNKREIEYLENTLPKSPYYYWIGIRKIGKMWTWVGTNKTLTKEAENWGAGEPNNKKSKEDCVEIYIKRERDSGKWNDDACHKRKAALCYTASCQPGSCNGRGECVETINNHTCICDAGYYGPQCQYVVQCEPLEAPELGTMDCIHPLGNFSFQSKCAFNCSEGRELLGTAETQCGASGNWSSPEPICQVVQCEPLEAPELGTMDCIHPLGNFSFQSKCAFNCSEGRELLGTAETQCGASGNWSSPEPICQETNRSFSKIKEGDYN	not soluble
MATNESIMTLPLASKFKAEARAMADRGLSTYEAVYQLNKLEEQDKPRADAIMALDESGDYQPLLRAMANVPCIDVGTAKSILSMTIEQERPKVAPELTAAFENFMDMHSPQAVSAGMAYDGRNQGDDGDIDRILKTI	soluble
MSTAAETTGGDIEPWEEVTPDAARRLLVAAVEAFAERGYHATTTRDIAGRAGMSPAALYIHYKTKEELLHRISRIGHTRAVAILRSAAQGEGSAAERLADAVSSFVRWHAGRRTTARVVQYELDALGPEAREEILTLRRQCDAAVRGIIDDGVAAGEFDVPDVKGTTLAVLSLCIDVARWFNVNGPRTPDEVGALYADLVLRMVGAEPSGATAQR	not soluble
DKSPSSLTLALGKNIAGRPTVADLARMPHLLVAGTTGSGKSVAVNAMVLSLLFKASHNDLRMLMIDPKMLELSVYQGIPHLLAPVVTDMKEAANGLRWCVAEMERRYKLMSAVGVRNLAGFNKKVKDAEEAGQPLMDPLFKPNPDLSEVPRPLQKLPFIVIFIDEFADMMMIVGKKVEELIARLAQKARAAGIHLILATQRPSV	not soluble
MYRFLSGIKVVEIAGLAPVPHCGMMLADFGADVTVIDKKNPAIEQRLNRGKTMKQLDLKNPEDIKKVRDLCQTSDVLLDPYRPGTLEKMGLDPSTLWNNNKGLIICKISGYGQTGRMSQETGHDINYVALSGMLPTFSGVNATRPWPPANMLADFAGGGLSAAFGILSAIYARSHNGGKGCLLDCSMTEGVAYLSSFVQHYYDQPNLFTDKYALFSGECPIYRTYKTKDDKFVAVGAVEPKFYQNLFKLLNVDGRDLFVNPGKITEDLESRFLQKTRDKWANIFKGQECCVTPVLDIHEVGSYGQHVDRNSFTKTSSNWIANPSPRVWTQDELAALSSKK	not soluble
MSNVYVMALDFGNGFVKGKINDEKFVIPSRIGRKTNENNQLKGFVDNKLDVSEFIINGNNDEVLLFGNDLDKTTNTGKDTASTNDRYDIKSFKDLVECSIGLLAREVPEEVVNVVIATGMPSNEIGTDKQAKFEKLLNKSRLIEIDGIAKTINVKGVKIVAQPMGTLLDLNMENGKVFKAFTEGKYSVLDFGSGTTIIDTYQNMKRVEEESFVINKGTIDFYKRIASHVSKKSEGASITPRMIEKGLEYKQCKLNQKTVIDFKDEFYKEQDSLIEEVMSNFEITVGNINSIDRIIVTGGGANIHFDSLSHYYSDVFEKADDSQFSNVRGYEKLGELLKNKVEQESKRGSHHHHHH	soluble
MSRIEAVFFDCDGTLVDSEVICSRAYVTMFQEFGITLDPEEVFKRFKGVKLYEIIDIVSLEHGVTLAKTEAEHVYRAEVARLFDSAIEGAGALLSAITAPMCVVSNGPNNKMQHSMGKLNMLHYFPDKLFSGYDIQRWKPDPALMFHAAKAMNVNVENCILVDDSVAGAQSGIDAGMEVFYFCADPHNKPIVHPKVTTFTHLSQLPELWKARGWDITA	not soluble
MSLKAVTQCSQFFHEVSLPHLKPETTYYYRIPAANGTTESDILSFTTARAPGDKRSFTVAVLNDMGYTNAQGTHRQLLKAANEGAAFAWHGGDLSYADDWFSGILPCADDWPVCYNGTSTQLPGGGPIPEEYKQPLPQGETANQGGPQGGDMSVLYESNWDLWQQWMTNLTVKIPHMVMPGNHESACAEFDGPGNPITAYLNEGIPNGTWPAENLTYYSCPPSQRNFTAFQHRFHMPGKETGGVGNFWYSFDYGLAHFVSLDGETDFANSPFSTFERDLTGNETHPRPEETETTDSGPFGTIDGDRYDDNTAYAQYQWLKRDLASVDRTKTPWVFVMSHRPMYSSAYSSYQTNVRNAFENLLLQYGVDAYLSGHIHWYERMFPMTANGTIDESSIADNHTYTTNSGKSMTHIINGMAGNIESHSWFDEGEGLTEITAKLDRTHFGFSKLTVVNETVVNWEFVKGDDGSTGDWLTLVKGETCTINEGHHHHHH	not soluble
MYLPAHFAETRPEELARIIRAHPLGMLVTQDAQGLDADHLPFEFDPDAGPHGTLIAHVARANTLWQRCPDGSAVMVVFRGAEGYISPNWYPSKHEAHRQVPTWNYEVVHAHGTLAVRDDERFVRGVVARLTRRHEAGEPRPWKMTDSTPEYIDSMLRNIVGIEVAITSLVGKRKLSQNKDERDRLGAVQALQARGQDTLAQSMARAELEHHHHHH	not soluble
MGSDKIHHHHHHMEIIKKKFPKIKRDYLDTLQINIGYKCNQACSHCHVDSSPSRTEMMSDDIIKLIPKVIKANEIKLLDITGGAPELHPKFKQLVIEVRSLNVEVMDRCNLTILKEPGYESLAGFLASNKVQITASLPCYLEGNVDKQRGKGVFEKSILALKQLNNLGYGIKDKGLLLNLVYNPSTPQLPPSQKELEDIYRRELKERYGIFFSNLYVLANMPINRYENYLKTIGKLEEYNKLLKDNHNPGNINSVMCRSTLSVDWKGFLYDCDFNQQLGMKRNGNVKHLNDLLIPLVSLKNNPISTGNHCFGCTAGAGSSCGGELT	not soluble
ADEVAQTLAKVLTESSMPRENLLLSSFSHDVIRALYQHCEGYRLGVLSEFFTKKDGLLLDEVKAYSCNLNINWVRSRQIIKLQEAGYKVMCYTVNNPNKLKHLPQLDGIFSDHPKRFMQ	not soluble
MGSDKIHHHHHHMSSPLLTMRGIRKSYAGVHALVDGNLDLERGQIHALCGGNGAGKSTILGILMGFTRPDCGEIRIEGKPVSFANPTQALQAGIAIVQQELSGVPHLTVAENIYLGAEPRRRGFVDFPQLNRQAEELLASLGFDIDPRVPLASLSIASQQLIEIAKALSRRDADILIFDEPTSAIGEKDTLRLFEVLRDLAAAGKGIIYVTHRLAEVFTIADSYTVFKDGARIETGRVADITREKLIESMIGGAIEGEYVKENVPSDRPLLDVRGLSRAPWFDRVSFTLHAGEILGIYGLVGSGRSQLLDTIYGLYPADAGTVWVEGREIRPGRVRAALGAGISYVTEDRKHSGLVLCASVGDNLSLSQLPHIQRFGFIRTALERAGIDDSIAKMRIKTPGPEQIVRNLSGGNQQKVVFGRCTSIGPKVLLLDEPTRGVDVGAKKEIYRFVSDFTKAGGAVLMVSSELDEITGMSDRIIVIKKGAHVAEFPREETTQKALMMAAV	not soluble
MGSDKIHHHHHHMKTFLVCALEPSANLHLKEVLKAYKKDFGEFELHGIYDESLCKEFDLNSKPLYSSHEFSAMGFIEVLPLIFKAKKAIKELANLSFTQKINGILCIDSPAFNIPFAKALKKAGSKIPRIYYILPQVWAWKKGRIPIIESHFDILASILPFDNQFFNKSTYIGHPLLDEIKEFKNQEDINHTFSKKDDEKTIAFLPGSRRSEIRRLMPIFKELSQKFKGKKILCVPSFNLEKLEVYGDISEFKIESNTPKVLKKADFAFICSGTATLEAALVGTPFVLAYKAKAIDIFIAKLFVKLKHIGLANIFCDFAGKEALNPEFLQDKVNVLNLYEAYNKYDYKAFFAKVDFLKEYLQFGSAKNLAKILNEI	not soluble
MGSDKIHHHHHHMALRKNRGSRMQRNVIAMTEPKSLNSEQYRTIRTNIEFASVDRQMKSVMITSACPGEGKSTTAANLAVVFAQQGKKVLLIDADLRKPTVHTAFFLENTVGLTSVLLKKSSMEQAVQASNEKHLDVLTSGPIPPNPAELLSSKWMKELAYEACAAYDMVIFDTPPILAVADAQILGNVADGSVLVISSGKTEKEQAAKAKEALATCKSKLLGAIMNGKKLSKHSEYGYYGTKDNFMQK	not soluble
MSLQNLSPTQREILLALTDLYNRQKRMIKSKEVADIIGKDEGTVRNIILSLKVLGLVESKPGPNGGYMPTLKAYEIINNPTLTPILDKLNLYKGMIETDIKVENIEIIDITNPSANRVLLKVEGDLRKLKIGDAVRLGPTPYSRLVIEGLILHLDENSKEIVVDVKRMISIPKEKVKNLISKKLIALKPETSLREASMIFYKEAIRGAPVINQDEKVVGILTTADIIKAFFEGNYTAKVSDYMKTNVISINENEDLLDAIRKMIIYNVGRLLVLDSNNKAVGIVTRTDILRSIAGLEGLWTTEGHHHHHH	soluble
MINMKALVGGIILPVSSPPIKNGVLLFDEESGKIVAVGKKEEVTIPEDAEIIEAPGKYISPGFVDAHSHIGMIPDGLEWEFQEANDFYSPIAPHLRAVDGFDPYDEAFKEAIAGGVTTVATGPGSANVMGGIGLLAKTYEEGFEKIIKPEAFIKMALGPKRPREYKSKYPYPTTRMGTVALMRTWFKRAREFMEGKIKTDNIDEEEIEMLRLLARALKREIQVKIHLSTSPDEIYAAIRIIKEFNLNATIDHAFGSQLVADMLSREGIPVIYGPPMITRIASFFRYVDDKAPVLLFKKGVNVSIMTDHPVLPEKHLRLLAAVVARNGLSLDDALKLITINPAKALGIDRFVGSLEPGKDADIVISSDHPIKPTSKIEIVFGRGREVYKAD	soluble
MGSDKIHHHHHHMPSSVCGDPMMCQNCKKSVPNAIFHVYHRRGFHYPAQKCEENFILFLIKGEMLVNSREYAGTMLKAGEFMLQPISSKIEMLAMTDVECIYYQFNQPELFCDIRYNRIMKETDPPLIPSPLPIIPELQHFLESARTYLSEKKICRDLLSLKRKELAFILGYFYSDYDLASLVHPLSKYASSFECFVYQNYKKVKTVEEFAKLGGYSQTTFRRIFDNVFHEPVYEWMLSRRKEEIIYELQNTEATISEICYKFGFESLPHFSNFCKKSFGTSPRSIRLKRSSE	not soluble
